Test results as given in the supplement of paper PMC10567573.

B1: GMCL1 (parent)
chain: RPDTGDDAAGHGFCYCAGSHKRKR
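Note: lentivirally expressed fusions sorted by FACS into six bins by GFP to DsRed ratio, PSI derived from sequencing read proportions per bin multiplied by bin number.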

Variants of: B1
Test: protein stability index of a GFP-peptide fusion (GPS, HEK-293T) (PSI 1-6); higher = more stable
Details: c terminus: a fixed tail appended
RPDTGDDAAGHGFCYCAGCHKRKR [S19C] gave a protein stability index of 3.82. Work on RPDTGDDAAGHGFCYCAGHHKRKR [S19H] yielded a protein stability index of 2.77. For RPDTGDDAAGHGFCYCAGKHKRKR [S19K], the protein stability index was 3.78. With RPDTGDDAAGHGFCYCAGTHKRKR [S19T] the protein stability index was 3.65. RPDTGDDAAGHGFCYCAGSSKRKR [H20S] gave a protein stability index of 3.95. In the case of RPDTGDDAAGHGFCYCAGSVKRKR [H20V], the protein stability index is reported as 2.79. With RPDTGDDAAGHGFCYCAGSGKRKR [H20G] the protein stability index was 3.41. RPDTGDDAAGHGFCYCAGSWKRKR [H20W] gave a protein stability index of 2.62. Work on RPDTGDDAAGHGFCYCAGSNKRKR [H20N] yielded a protein stability index of 3.04. In the case of RPDTGDDAAGHGFCYCAGSFKRKR [H20F], the protein stability index is reported as 3.24. RPDTGDDAAGHGFCYCAGSRKRKR [H20R] gave a protein stability index of 3.31. Variant RPDTGDDAAGHGFCYCAGSAKRKR [H20A] has a protein stability index of 3.15. With RPDTGDDAAGHGFCYCAGSKKRKR [H20K] the protein stability index was 4.09. Work on RPDTGDDAAGHGFCYCAGSCKRKR [H20C] yielded a protein stability index of 3.26. For RPDTGDDAAGHGFCYCAGSPKRKR [H20P], the protein stability index was 2.85. Variant RPDTGDDAAGHGFCYCAGSTKRKR [H20T] has a protein stability index of 3.05. In the case of RPDTGDDAAGHGFCYCAGSIKRKR [H20I], the protein stability index is reported as 3.9. In the case of RPDTGDDAAGHGFCYCAGSEKRKR [H20E], the protein stability index is reported as 3.3. For RPDTGDDAAGHGFCYCAGSMKRKR [H20M], the protein stability index was 3.03. With RPDTGDDAAGHGFCYCAGSYKRKR [H20Y] the protein stability index was 3.12. For RPDTGDDAAGHGFCYCAGSDKRKR [H20D], the protein stability index was 3.35. In the case of RPDTGDDAAGHGFCYCAGSQKRKR [H20Q], the protein stability index is reported as 3.59. Variant RPDTGDDAAGHGFCYCAGSLKRKR [H20L] has a protein stability index of 3.18. RPDTGDDAAGHGFCYCAKSHKRKR [G18K] gave a protein stability index of 3.58. In the case of RPDTGDDAAGHGFCYCAHSHKRKR [G18H], the protein stability index is reported as 2.53. For RPDTGDDAAGHGFCYCAESHKRKR [G18E], the protein stability index was 3.6. Variant RPDTGDDAAGHGFCYCAISHKRKR [G18I] has a protein stability index of 2.9. With RPDTGDDAAGHGFCYCASSHKRKR [G18S] the protein stability index was 3.36. Work on RPDTGDDAAGHGFCYCATSHKRKR [G18T] yielded a protein stability index of 3.53. With RPDTGDDAAGHGFCYCARSHKRKR [G18R] the protein stability index was 3.29. Work on RPDTGDDAAGHGFCYCACSHKRKR [G18C] yielded a protein stability index of 2.77. Work on RPDTGDDAAGHGFCYCAQSHKRKR [G18Q] yielded a protein stability index of 3.12. In the case of RPDTGDDAAGHGFCYCAPSHKRKR [G18P], the protein stability index is reported as 3.53. RPDTGDDAAGHGFCYCAFSHKRKR [G18F] showed a protein stability index of 2.7. RPDTGDDAAGHGFCYCAMSHKRKR [G18M] showed a protein stability index of 2.71. RPDTGDDAAGHGFCYCAYSHKRKR [G18Y] gave a protein stability index of 2.98. In the case of RPDTGDDAAGHGFCYCANSHKRKR [G18N], the protein stability index is reported as 2.85. In the case of RPDTGDDAAGHGFCYCALSHKRKR [G18L], the protein stability index is reported as 2.66. RPDTGDDAAGHGFCYCADSHKRKR [G18D] showed a protein stability index of 2.84. In the case of RPDTGDDAAGHGFCYCAWSHKRKR [G18W], the protein stability index is reported as 2.09. RPDTGDDAAGHGFCYCAASHKRKR [G18A] showed a protein stability index of 3.24. For RPDTGDDAAGHGFCYCAVSHKRKR [G18V], the protein stability index was 2.75. RPDTGDDAAGHGFCYCAGSHVRKR [K21V] showed a protein stability index of 2.79. Work on RPDTGDDAAGHGFCYCAGSHERKR [K21E] yielded a protein stability index of 2.57. In the case of RPDTGDDAAGHGFCYCAGSHMRKR [K21M], the protein stability index is reported as 2.65. With RPDTGDDAAGHGFCYCAGSHDRKR [K21D] the protein stability index was 3.15. In the case of RPDTGDDAAGHGFCYCAGSHARKR [K21A], the protein stability index is reported as 3.07. For RPDTGDDAAGHGFCYCAGSHLRKR [K21L], the protein stability index was 2.69. Work on RPDTGDDAAGHGFCYCAGSHRRKR [K21R] yielded a protein stability index of 2.67. RPDTGDDAAGHGFCYCAGSHPRKR [K21P] gave a protein stability index of 3.03. Work on RPDTGDDAAGHGFCYCAGSHSRKR [K21S] yielded a protein stability index of 2.34. RPDTGDDAAGHGFCYCAGSHQRKR [K21Q] gave a protein stability index of 2.79. In the case of RPDTGDDAAGHGFCYCAGSHGRKR [K21G], the protein stability index is reported as 2.39. Work on RPDTGDDAAGHGFCYCAGSHWRKR [K21W] yielded a protein stability index of 2.29. RPDTGDDAAGHGFCYCAGSHCRKR [K21C] showed a protein stability index of 3.23. Variant RPDTGDDAAGHGFCYCAGSHFRKR [K21F] has a protein stability index of 2.52. RPDTGDDAAGHGFCYCAGSHNRKR [K21N] gave a protein stability index of 2.83. For RPDTGDDAAGHGFCYCAGSHHRKR [K21H], the protein stability index was 2.35. For RPDTGDDAAGHGFCYCAGSHTRKR [K21T], the protein stability index was 2.74. For RPDTGDDAAGHGFCYCAGSHIRKR [K21I], the protein stability index was 2.01. Variant RPDTGDDAAGHGFCYCAGSHYRKR [K21Y] has a protein stability index of 2.11. With RPDTGDDAAGHGFCYCLGSHKRKR [A17L] the protein stability index was 2.59. RPDTGDDAAGHGFCYCHGSHKRKR [A17H] showed a protein stability index of 2.29. With RPDTGDDAAGHGFCYCRGSHKRKR [A17R] the protein stability index was 2.9. RPDTGDDAAGHGFCYCIGSHKRKR [A17I] showed a protein stability index of 2.97. With RPDTGDDAAGHGFCYCVGSHKRKR [A17V] the protein stability index was 2.56. With RPDTGDDAAGHGFCYCYGSHKRKR [A17Y] the protein stability index was 3.25. In the case of RPDTGDDAAGHGFCYCSGSHKRKR [A17S], the protein stability index is reported as 2.77. Variant RPDTGDDAAGHGFCYCNGSHKRKR [A17N] has a protein stability index of 3.61. RPDTGDDAAGHGFCYCWGSHKRKR [A17W] gave a protein stability index of 3.01. With RPDTGDDAAGHGFCYCMGSHKRKR [A17M] the protein stability index was 2.99. Work on RPDTGDDAAGHGFCYCGGSHKRKR [A17G] yielded a protein stability index of 2.9. With RPDTGDDAAGHGFCYCKGSHKRKR [A17K] the protein stability index was 2.82. Variant RPDTGDDAAGHGFCYCQGSHKRKR [A17Q] has a protein stability index of 3.02. Variant RPDTGDDAAGHGFCYCPGSHKRKR [A17P] has a protein stability index of 3.7. RPDTGDDAAGHGFCYCTGSHKRKR [A17T] showed a protein stability index of 3.13. For RPDTGDDAAGHGFCYCAGSHKLKR [R22L], the protein stability index was 2.57. With RPDTGDDAAGHGFCYCAGSHKKKR [R22K] the protein stability index was 3.08. Work on RPDTGDDAAGHGFCYCAGSHKVKR [R22V] yielded a protein stability index of 2.65. RPDTGDDAAGHGFCYCAGSHKSKR [R22S] gave a protein stability index of 2.77. With RPDTGDDAAGHGFCYCAGSHKIKR [R22I] the protein stability index was 3. Work on RPDTGDDAAGHGFCYCAGSHKQKR [R22Q] yielded a protein stability index of 2.66. Work on RPDTGDDAAGHGFCYCAGSHKGKR [R22G] yielded a protein stability index of 2.43. RPDTGDDAAGHGFCYCAGSHKDKR [R22D] gave a protein stability index of 3.55. RPDTGDDAAGHGFCYCAGSHKTKR [R22T] gave a protein stability index of 2.64. Variant RPDTGDDAAGHGFCYCAGSHKEKR [R22E] has a protein stability index of 3.56. Work on RPDTGDDAAGHGFCYCAGSHKYKR [R22Y] yielded a protein stability index of 2.01. For RPDTGDDAAGHGFCYCAGSHKWKR [R22W], the protein stability index was 2.6. In the case of RPDTGDDAAGHGFCYCAGSHKHKR [R22H], the protein stability index is reported as 2.56. Work on RPDTGDDAAGHGFCYCAGSHKAKR [R22A] yielded a protein stability index of 2.76. Work on RPDTGDDAAGHGFCYCAGSHKMKR [R22M] yielded a protein stability index of 2.12. In the case of RPDTGDDAAGHGFCYCAGSHKNKR [R22N], the protein stability index is reported as 2.62. Work on RPDTGDDAAGHGFCYCAGSHKFKR [R22F] yielded a protein stability index of 1.96. For RPDTGDDAAGHGFCYCAGSHKCKR [R22C], the protein stability index was 3.59. RPDTGDDAAGHGFCYCAGSHKPKR [R22P] gave a protein stability index of 2.79.
